In patent US6586236:

Target: goat anti-mouse kappa light chain IgG (Southern Biotech)
Experiment: phage panning of 1:1 W100/R100 mixture on coated wells, oligonucleotide hybridization of plaque lifts

## DB3 R100 VH/κ-gpVIII fusion polypeptide displayed on JC-M13-88 phage (from UniProt P69541 24-73) (scFv)
  % DB3 R100 variant in DB3 phage eluted, 2 rounds of panning: 82.1%
  % DB3 R100 variant in DB3 phage eluted, 3 rounds of panning: 79.2%
